Data from paper PMC9031227, “Structure-Activity Relationship Investigations of Novel Constrained Chimeric Peptidomimetics of SOCS3 Protein Targeting JAK2” (Pharmaceuticals, 2022).
Where no end group is shown, it is not given here. [ ]: non-standard residue; d: D form. S5 = C=CCCC[C@](C)(N)C(=O)O

Target: T1, His-tagged Catalytic Domain of JAK2 (residues 826–1132) (UniProt O60674 826-1132, RED-tris-NTA dye bound to the His tag (His-Tag labeling Kit RED-tris-NTA))
T1 construct: JAK2 (Janus Kinase 2), catalytic domain, residues 826-1132; also called JAK2 catalytic domain; Janus Kinase 2; source: bought: Carna Biosciences
Test: MST; Monolith NT 115; His-tagged JAK2 catalytic domain labelled with RED-tris-NTA kept constant, peptides in increasing concentrations; standard capillaries, 25 °C, 50 mM Tris-HCl, 150 mM NaCl, 0.05% Brij35, 1 mM DTT, 10% glycerol, 15% TFE, pH 7.5; fit by Langmuir binding isotherm
Settings: both partners purified

T1 sequence (O60674 826-1132): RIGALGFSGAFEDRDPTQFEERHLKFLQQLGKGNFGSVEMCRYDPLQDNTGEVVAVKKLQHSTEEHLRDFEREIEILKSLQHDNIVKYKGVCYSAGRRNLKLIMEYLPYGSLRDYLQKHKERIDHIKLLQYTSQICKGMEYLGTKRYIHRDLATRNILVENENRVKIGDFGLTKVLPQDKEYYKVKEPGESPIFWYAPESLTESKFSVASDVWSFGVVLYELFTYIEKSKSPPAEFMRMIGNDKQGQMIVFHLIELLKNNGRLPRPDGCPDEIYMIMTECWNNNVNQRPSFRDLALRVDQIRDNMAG

For FSSKSEYQL[S5]FYWS[S5]VTG-OH (not fully specified; bridges not given here) [linear version of KIRCONG i/i+5 peptide], the Kd was 8 µM.
